This is an account of results in patent publication US20060241040A1 (published 2006).

Assay [1] deals with T1, TLR4:Fc fusion protein (entire extracellular domain of hTLR4, amino acids 1-632, fused to the Fc portion of … (human; mouse, UniProt P01863 98-330 = IgG part).
T1 construct: domain: C-terminal 233 amino acid Fc portion; Secreted by retrovirally transduced HEK293 cells; also called T4:Fc; TLR4:Fc chimera
Put plainly: indirect ELISA-like assay: TLR4:Fc captured on protein A coated plate, MD-2 titrated 0.1 to 50 nM, Ni-HRP detection, absorbance at 450 nm; without LPS (dotted line). The method, then:
FIG. 4A is a line graph of MD-2^6xHis binding to TLR-4:Fc. MD-2^6xHis was added in titrated amounts (0.1 to 50 nM). To control for non-specific binding to protein A, 50 nM of MD-2 was plated in the absence of TLR4:Fc (“50”). […] The apparent […] of this interaction is of ˜12 nM.
To determine the Kd for the interaction between TLR4 and MD-2, an indirect ELISA-like binding assay was developed. Fifty μl of purified TLR4:Fc at 20 μg/ml (FIG. 4A) or at the concentration indicated in FIG. 4B was plated on protein A coated, high-protein binding 96 well plates. […] MD-2 bound to TLR4:Fc was detected using Ni-HRP (1:2,000 in PBS-Tween, Sigma), and developed by incubation with its chromogenic substrate per the manufacturer's instructions (DAKO, Carpinteria, Calif.). Each condition was measured in triplicate; the absorbance of each sample was measured at 450 nm; the results are presented as the average reading±SD.
In FIG. 4A, saturating amounts of TLR4:Fc were adsorbed to protein A coated 96 well plates and purified soluble MD-2 was added in titrated amounts. The 6×His tag present at the C terminus of MD-2 was detected using a Ni based HRP labeled reagent, and the presence of MD-2 bound to TLR4 was detected using a chromogenic substrate. […]
For orientation: ELISA stands for enzyme-linked immunosorbent assay.

For assay [2], the target named is T1, TLR4:Fc fusion protein (entire …). Kind of assay: depletion of human serum with TLR4:Fc loaded protein A beads, read out on NF-κB reporter cells (FIG. 6A). As to the method:
Human serum was collected from healthy volunteers using standard serum Vacutainers™ blood collection tubes (Becton Dickinson) and clotted for 30 minutes at room temperature. The blood clot was removed by centrifugation and serum stored at −20° C. in 1 ml aliquots until use. MD-2 was removed from serum using immunoaffinity techniques using chimeric antibody-like proteins bound to protein A Sepharose™ beads (PAS). Human antibodies can potentially compete with the TLR chimeras for binding sites on protein A beads. Therefore, they were removed from serum by two preclearing steps, of two hours each, with 1/10 the volume of packed PAS beads.
HEK293 cells that had been transduced with retrovirus encoding the TLR:Fc fusion proteins were grown in protein free medium and served as the source of conditioned medium. TLR4:Fc and TLR2:Fc were captured from 50-100 ml of medium using 40 μl of packed PAS/ml for one hour at 4° C. Coated beads were then added to sera that had been precleared with PAS alone for 1 hour at 4° C. Human serum was diluted in DMEM to a final concentration of 20% v/v before use on reporter cells. Before each conjugation/treatment step, the beads were washed with 20% ethanol in PBS followed by equilibration in DMEM. Reconstitution with MD-2 was performed by adding the indicated amounts of recombinant purified MD-2 to the TLR4:Fc depleted stimulating media. […]

T1 sequence (P01863 other isoform, or with tags, fused parts or gaps limits assumed): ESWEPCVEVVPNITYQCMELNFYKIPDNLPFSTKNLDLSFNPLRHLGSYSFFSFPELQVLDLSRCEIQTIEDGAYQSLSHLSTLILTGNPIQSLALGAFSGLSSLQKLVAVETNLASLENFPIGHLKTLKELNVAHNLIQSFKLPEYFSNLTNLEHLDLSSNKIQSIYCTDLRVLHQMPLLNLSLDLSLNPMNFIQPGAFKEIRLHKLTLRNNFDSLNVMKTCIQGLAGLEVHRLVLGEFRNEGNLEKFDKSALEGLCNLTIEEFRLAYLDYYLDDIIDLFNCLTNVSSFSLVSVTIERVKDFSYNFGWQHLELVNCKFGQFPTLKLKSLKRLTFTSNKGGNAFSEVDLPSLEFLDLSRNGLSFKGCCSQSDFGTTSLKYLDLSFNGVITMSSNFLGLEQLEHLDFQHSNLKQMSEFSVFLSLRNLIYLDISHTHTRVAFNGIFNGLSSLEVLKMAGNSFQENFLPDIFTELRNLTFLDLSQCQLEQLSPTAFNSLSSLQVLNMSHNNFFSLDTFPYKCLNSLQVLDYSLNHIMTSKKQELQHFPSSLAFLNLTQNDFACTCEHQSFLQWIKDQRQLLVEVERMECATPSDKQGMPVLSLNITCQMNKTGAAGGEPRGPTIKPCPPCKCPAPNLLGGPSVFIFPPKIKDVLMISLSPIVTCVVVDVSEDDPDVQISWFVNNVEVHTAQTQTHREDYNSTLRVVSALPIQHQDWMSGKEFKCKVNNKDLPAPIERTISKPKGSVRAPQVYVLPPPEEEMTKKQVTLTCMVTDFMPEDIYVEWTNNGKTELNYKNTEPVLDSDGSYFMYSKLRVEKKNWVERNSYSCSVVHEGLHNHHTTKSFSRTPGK

B1: C-terminally 6×His tagged human MD-2, baculovirus-derived (Sf9 insect cells), purified (ligand)
chain: QKQYWVCNSSDASISYTYCDKMQYPISINVNPCIELKGSKGLLHIFYIPRRDLKQLYFNLYITVNTMNLPKRKEVICRGSDDDYSFCRALKGETVNTTISFSFKGIKFSKGKYKCVVEAISGSPEEMLFCLEFVILHQPNSNHHHHHH
notes: Purified from supernatants (secreted); also called MD-2^6xHis; MD-2^6×His
Consider B1, for which the Kd (commonly the equilibrium constant for the complex coming apart) in assay [1] is around 12 nM.

B2: endogenous soluble MD-2 in serum of healthy human donors (ligand)
chain: QKQYWVCNSSDASISYTYCDKMQYPISINVNPCIELKGSKGLLHIFYIPRRDLKQLYFNLYITVNTMNLPKRKEVICRGSDDDYSFCRALKGETVNTTISFSFKGIKFSKGKYKCVVEAISGSPEEMLFCLEFVILHQPNSN
notes: Natural protein in serum; also called sMD-2; serum MD-2
For B2, the binding result in assay [2] was “binds”.
